The values below come from publication PMC7064540.

A short description of data set [1]: immunoblot after MG132 or bafilomycin A1, 6 h. The conditions noted are these: glycan lost; control: wild type Gpr176-GFP.
Data set [2] in a line: immunoblot densitometry, Dox-induced Flp-In TREx293. As to conditions: glycan lost; for expression_or_secretion, percent_of_wt: control: wild type; for expression_or_secretion: control: wild type hGPR176. Background: In western blotting, separated proteins are transferred to a membrane and probed.
Data set [3] in a line: confocal GFP imaging with ER-Tracker. The conditions noted are these: glycan lost; control: wild type Gpr176-GFP.
Data set [4] is described as follows: immunoblot of PNGase F-treated live cells. As to conditions: glycan lost; control: cells without PNGase F.

B1: Gpr176: N-ter mut (protein)
parent chain: MGHNSSWVSPNTSHPRNTSGAEAGANLSAFGELSEAQLYRQFTTTVQVVIFIGSLLGNFMVLWSTCRTTVFKSVTNRFIKNLACSGICASVVCVPFDIILSSSPHCCWWIYTMLFCKVLKFLHKVFCSVTVLSFPAIALDRYYSVLYPLERKISDAKSRELVMYIWAHAVVASVPVFAVTNVADIYAMSTCTEVWSNSLGHLVYVLIYNVTTVIVPVAVVFLFLILIRRALSASQKKKVIIAALRTPQNTISIPYASQREAELHATLLSMVTVFILCSVPYATLVVYQTVLNVPNTSVFLLLTAIWLPKVSLLANPVLFLTVNKSVRKCLVGTLVQLHHRYSRRNVVSTGSGVAEPSLEPSMRSGSQLLEMFHIGQQQIFKPSEDEEESEAKYLGSADFQAKEVLTSCPEGEQEPPQLAPSVPPPGTVDSEPRVSPVAPMESGIFPDKYSLQFGFGPFELPPQWLSETRNSKKRLLPPLGNTPEELIQTKVPRVNRVERKMSRNNKVSIFPKVDS
With B1, the degradation_or_half_life result in data set [1] is reported as “decreases”. For the same protein, in data set [2], the “expression_or_secretion, percent_of_wt” value is on record as “decreases”. Also, the localisation_or_trafficking entry in data set [3] is listed as “changes”.

B2: Gpr176: PNGase F (protein)
parent chain: B1 parent chain
As for B2, the expression_or_secretion entry in data set [4] was “no change”.

B3: Gpr176: N-ter/ECL3 (protein)
parent chain: B1 parent chain
As for B3, the “expression_or_secretion, percent_of_wt” value in data set [2] is “decreases”.

B4: hGPR176: N-ter mut (N4Q;N11Q;N17Q;N27Q) (protein)
parent chain: MGHNGSWISPNASEPHNASGAEAAGVNRSALGEFGEAQLYRQFTTTVQVVIFIGSLLGNFMVLWSTCRTTVFKSVTNRFIKNLACSGICASLVCVPFDIILSTSPHCCWWIYTMLFCKVVKFLHKVFCSVTILSFPAIALDRYYSVLYPLERKISDAKSRELVMYIWAHAVVASVPVFAVTNVADIYATSTCTEVWSNSLGHLVYVLVYNITTVIVPVVVVFLFLILIRRALSASQKKKVIIAALRTPQNTISIPYASQREAELHATLLSMVMVFILCSVPYATLVVYQTVLNVPDTSVFLLLTAVWLPKVSLLANPVLFLTVNKSVRKCLIGTLVQLHHRYSRRNVVSTGSGMAEASLEPSIRSGSQLLEMFHIGQQQIFKPTEDEEESEAKYIGSADFQAKEIFSTCLEGEQGPQFAPSAPPLSTVDSVSQVAPAAPVEPETFPDKYSLQFGFGPFELPPQWLSETRNSKKRLLPPLGNTPEELIQTKVPKVGRVERKMSRNNKVSIFPKVDS
In the case of B4, the expression_or_secretion entry in data set [2] is “decreases”.

B5: hGPR176: N4D (protein)
parent chain: B4 parent chain
On to B5, for which the expression_or_secretion result in data set [2] was “no change”.

B6: hGPR176: S13G (protein)
parent chain: B4 parent chain
Take B6: the expression_or_secretion entry in data set [2] is recorded as “decreases”.

B7: hGPR176: N4S (protein)
parent chain: B4 parent chain
On to B7, for which the expression_or_secretion result in data set [2] is reported as “decreases”.

B8: hGPR176: N17T (protein)
parent chain: B4 parent chain
For the protein B8, in data set [2], the expression_or_secretion result is “no change”.

B9: hGPR176: N17K (protein)
parent chain: B4 parent chain
As to B9, the expression_or_secretion entry in data set [2] is recorded as “no change”.
